# T1: myocilin C-terminal olfactomedin domain (myoc-OLF), cleaved from MBP, wild type (human, UniProt Q99972 228-504)
# T1 sequence (looked up): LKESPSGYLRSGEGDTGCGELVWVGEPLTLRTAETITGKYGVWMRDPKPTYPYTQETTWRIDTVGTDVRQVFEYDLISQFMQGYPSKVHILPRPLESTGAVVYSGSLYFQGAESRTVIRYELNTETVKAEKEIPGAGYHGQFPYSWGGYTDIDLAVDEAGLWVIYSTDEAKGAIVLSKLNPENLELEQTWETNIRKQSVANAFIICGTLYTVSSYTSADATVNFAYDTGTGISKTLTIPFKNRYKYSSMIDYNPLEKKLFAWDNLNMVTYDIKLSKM
# How the values were obtained:
# [1] = biological target: T1, myocilin C-terminal olfactomedin domain …; experiment: seeded fibril formation followed by thioflavin T fluorescence
# [2] = biological target: the molecule itself; experiment: thioflavin T fluorescence of fibril formation
# SEC = biological target: the molecule itself; experiment: SEC
binding result [1],Binder,binding result [2],binding result (SEC)
binds,"myoc-OLF(Y437H), cleaved from MBP (domain or fragment, human, UniProt Q99972 228-504, looked up) LKESPSGYLRSGEGDTGCGELVWVGEPLTLRTAETITGKYGVWMRDPKPTYPYTQETTWRIDTVGTDVRQVFEYDLISQFMQGYPSKVHILPRPLESTGAVVYSGSLYFQGAESRTVIRYELNTETVKAEKEIPGAGYHGQFPYSWGGYTDIDLAVDEAGLWVIYSTDEAKGAIVLSKLNPENLELEQTWETNIRKQSVANAFIICGTLHTVSSYTSADATVNFAYDTGTGISKTLTIPFKNRYKYSSMIDYNPLEKKLFAWDNLNMVTYDIKLSKM",binds,–
–,"MBP-OLF(P370L) (domain or fragment, human, UniProt Q99972 228-504, looked up) LKESPSGYLRSGEGDTGCGELVWVGEPLTLRTAETITGKYGVWMRDPKPTYPYTQETTWRIDTVGTDVRQVFEYDLISQFMQGYPSKVHILPRPLESTGAVVYSGSLYFQGAESRTVIRYELNTETVKAEKEIPGAGYHGQFLYSWGGYTDIDLAVDEAGLWVIYSTDEAKGAIVLSKLNPENLELEQTWETNIRKQSVANAFIICGTLYTVSSYTSADATVNFAYDTGTGISKTLTIPFKNRYKYSSMIDYNPLEKKLFAWDNLNMVTYDIKLSKM",–,binds
–,"MBP-OLF(Y437H) (domain or fragment, human, UniProt Q99972 228-504, looked up) LKESPSGYLRSGEGDTGCGELVWVGEPLTLRTAETITGKYGVWMRDPKPTYPYTQETTWRIDTVGTDVRQVFEYDLISQFMQGYPSKVHILPRPLESTGAVVYSGSLYFQGAESRTVIRYELNTETVKAEKEIPGAGYHGQFPYSWGGYTDIDLAVDEAGLWVIYSTDEAKGAIVLSKLNPENLELEQTWETNIRKQSVANAFIICGTLHTVSSYTSADATVNFAYDTGTGISKTLTIPFKNRYKYSSMIDYNPLEKKLFAWDNLNMVTYDIKLSKM",–,binds
–,"MBP-OLF(245-504) (domain or fragment, human, UniProt Q99972 245-504, looked up) CGELVWVGEPLTLRTAETITGKYGVWMRDPKPTYPYTQETTWRIDTVGTDVRQVFEYDLISQFMQGYPSKVHILPRPLESTGAVVYSGSLYFQGAESRTVIRYELNTETVKAEKEIPGAGYHGQFPYSWGGYTDIDLAVDEAGLWVIYSTDEAKGAIVLSKLNPENLELEQTWETNIRKQSVANAFIICGTLYTVSSYTSADATVNFAYDTGTGISKTLTIPFKNRYKYSSMIDYNPLEKKLFAWDNLNMVTYDIKLSKM",–,binds
–,"MBP-OLF(245-455) (domain or fragment, human, UniProt Q99972 245-455, looked up) CGELVWVGEPLTLRTAETITGKYGVWMRDPKPTYPYTQETTWRIDTVGTDVRQVFEYDLISQFMQGYPSKVHILPRPLESTGAVVYSGSLYFQGAESRTVIRYELNTETVKAEKEIPGAGYHGQFPYSWGGYTDIDLAVDEAGLWVIYSTDEAKGAIVLSKLNPENLELEQTWETNIRKQSVANAFIICGTLYTVSSYTSADATVNFAYDT",–,binds

# Reference: PMC3323732 (Journal of Molecular Biology, 2011)
